In patent US20140170144A1 (CELLMID, published 2014):

Target: T1, recombinant human midkine (MK17) (Homo sapiens, UniProt P21741 23-143)
T1 construct: The signal is left out; It gives a molecular weight of 13.4 kDa; also called human MK; MK17 protein
T1 sequence: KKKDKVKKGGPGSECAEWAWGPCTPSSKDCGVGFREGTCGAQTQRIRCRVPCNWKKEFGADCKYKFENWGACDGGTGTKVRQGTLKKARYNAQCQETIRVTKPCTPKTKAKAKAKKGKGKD
Assay: SPR (Biacore), antibody amine coupled to CM-4 chip, midkine 0-20 nM as analyte
Experimental: Antibody IP-13 (2.85 mg/ml) was diluted to 5.7 μg/ml in Biacore acetate pH 4.5 buffer and amine coupled to of flow cell (FC) #3 of a CM-4 chip. Approximately 750 units were aimed to be immobilized onto Flow cells (FC) #3 of the CM-4 chip; and FC#1 was blocked using EDC/NHS followed by ethanolamine and was used as reference during the study.
Recombinant human midkine was diluted to 15 μM (1 μl of 10 mg/ml in 50 μl of HBS-EP buffer, the calculation was based on molecular weight of 13.4 kDa). Various dilutions of human midkine using HBS-EP buffer were prepared (0, 1, 2, 3, 4, 5, 10 and 20 nM).

Ka: 5e+08 M⁻¹ | Kd: 2.02 nM | koff: 0.0028 s⁻¹ | kon: 1.4e+06 M⁻¹ s⁻¹
B1: monoclonal antibody IP-13 (antibody, V domains shown)
VH: EVQLQQSGPELVKPGASVKIPCKASGYTFTDYNMGWVKQSHGKSLEWIGDINPNNGGTIYNQKFKGKATLTVDKSSSTAYMELRSLTSEDTAVYYCARWSYSNPYFDYWGQGTTLTVSS
VL: SIVMTQTPNFLLVSAGDRVTITCKASQSVSNDVSWYQQKPGQSPKLLIYYASNLYTGVPDRFTGSGYGTDFTFTISTVQAEDLAVYFCQQDYSSPWTFGGGTKLEIK
notes: also called mAb IP-13
